In FireProtDB (doi:10.1021/bi00093a001):

Conditions: Hordeum vulgare, MES 450 mM, reversible: yes, whole UniProt chain shown; for Tm / unfolding enthalpy (calorimetric) / unfolding enthalpy (van 't Hoff): Thermal, DSC
[1] = pH 6.3, 25 °C, GdnHCl, Fluorescence

B1: Subtilisin-chymotrypsin inhibitor-2A wild type, P01053 (protein)
chain: MSSVEKKPEGVNTGAGDRHNLKTEWPELVGKSVEEAKKVILQDKPEAQIIVLPVGTIVTMEYRIDRVRLFVDKLDNIAQVPRVG
Which Tm (pH 3) does the source give for B1 here?
The Tm was 64 °C.

What about the “unfolding enthalpy (calorimetric)” value (pH 3) of the same protein?
Its value is 61 kcal/mol.

What about the “unfolding enthalpy (van 't Hoff)” value (pH 3) of the same protein?
Its value is 61.2 kcal/mol.

What about the Tm (pH 3.5) of the same protein?
Its Tm is 73.8 °C.

And the “unfolding enthalpy (calorimetric)” value (pH 3.5)?
Its value is 67 kcal/mol.

And the “unfolding enthalpy (van 't Hoff)” value (pH 3.5)?
The value was 66.9 kcal/mol.

What about the denaturant m value [1] of the same protein?
The denaturant m value was 1.89 kcal/mol/M.

And the “denaturant midpoint (higher = more stable)” value [1]?
Its value is 3.99 M.

What about the unfolding free energy [1] of the same protein?
The unfolding free energy was 7.53 kcal/mol.
